Patent publication US20230332136A1, “IL-17 RECEPTOR MODULATOR SCREENING SYSTEM” (New York University, priority 2022, published 2023)
Each block holds one molecule with its values, some of them ahead of it.

How the values were obtained:
hIL-17RA/RC = molecular target: T1, hIL-17RA/RC (Homo sapiens, UniProt Q8NAC3+Q96F46); experiment: hADIR-17 dmCherry reporter assay (clonal cell line); type: cell-based; settings: activator screen, increasing doses (FIG. 12)
T1 construct: expressed in transfected cells; host or cells: MEF cells stably transduced with retroviral constructs (clonal hADIR-17 line)
T1 sequence (Q96F46 33-866): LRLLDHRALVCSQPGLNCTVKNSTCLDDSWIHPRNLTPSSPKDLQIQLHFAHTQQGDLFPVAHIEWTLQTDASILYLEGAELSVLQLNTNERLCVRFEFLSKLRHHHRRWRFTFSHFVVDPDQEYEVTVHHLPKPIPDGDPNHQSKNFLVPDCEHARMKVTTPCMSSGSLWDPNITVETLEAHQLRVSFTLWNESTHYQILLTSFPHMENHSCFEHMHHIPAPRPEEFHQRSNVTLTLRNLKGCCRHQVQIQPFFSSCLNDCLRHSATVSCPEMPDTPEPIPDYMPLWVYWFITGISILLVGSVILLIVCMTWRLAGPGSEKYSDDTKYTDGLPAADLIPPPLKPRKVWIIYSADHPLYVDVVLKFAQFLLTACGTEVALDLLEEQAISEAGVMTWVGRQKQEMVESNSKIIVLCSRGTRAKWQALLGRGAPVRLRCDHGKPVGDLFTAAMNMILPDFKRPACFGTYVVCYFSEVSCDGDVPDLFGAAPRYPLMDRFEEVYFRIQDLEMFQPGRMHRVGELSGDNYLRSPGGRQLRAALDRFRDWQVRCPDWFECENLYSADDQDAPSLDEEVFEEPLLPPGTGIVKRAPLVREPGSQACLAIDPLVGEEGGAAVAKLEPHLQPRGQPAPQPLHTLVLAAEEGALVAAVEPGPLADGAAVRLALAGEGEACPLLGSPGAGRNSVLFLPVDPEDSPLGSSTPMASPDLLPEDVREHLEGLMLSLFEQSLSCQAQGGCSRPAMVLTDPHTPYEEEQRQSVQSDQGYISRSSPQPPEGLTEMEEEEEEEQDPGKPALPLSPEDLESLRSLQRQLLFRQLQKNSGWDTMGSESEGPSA
T1 sequence (Q8NAC3 21-705 isoform Q8NAC3-3 limits assumed): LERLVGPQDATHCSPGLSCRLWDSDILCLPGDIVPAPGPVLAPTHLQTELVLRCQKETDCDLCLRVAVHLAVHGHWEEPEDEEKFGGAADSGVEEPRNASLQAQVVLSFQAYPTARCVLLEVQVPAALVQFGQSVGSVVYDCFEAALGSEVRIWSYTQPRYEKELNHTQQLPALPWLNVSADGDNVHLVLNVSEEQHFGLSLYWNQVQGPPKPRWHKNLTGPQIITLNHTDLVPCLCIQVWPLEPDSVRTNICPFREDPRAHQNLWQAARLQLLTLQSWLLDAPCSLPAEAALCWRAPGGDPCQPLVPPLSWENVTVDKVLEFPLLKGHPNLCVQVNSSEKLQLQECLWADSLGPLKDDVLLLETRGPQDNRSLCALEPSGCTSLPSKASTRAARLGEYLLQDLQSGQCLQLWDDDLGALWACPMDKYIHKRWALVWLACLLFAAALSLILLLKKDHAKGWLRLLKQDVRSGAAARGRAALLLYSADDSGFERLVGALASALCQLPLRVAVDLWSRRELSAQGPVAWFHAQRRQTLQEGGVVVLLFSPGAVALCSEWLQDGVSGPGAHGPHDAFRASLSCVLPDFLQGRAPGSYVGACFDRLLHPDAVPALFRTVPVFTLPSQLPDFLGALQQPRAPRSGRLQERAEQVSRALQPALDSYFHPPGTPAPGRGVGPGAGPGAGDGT
Method: FIG. 9 provides a graphical depiction of constructs for use with human IL-17 receptors. Similar retroviral transfer plasmid constructs as mouse, with human cDNA sequences replacing mouse cDNA. Exogenous hIL-17RA is provided for a functional hADIR system. hIL-17RC, RB, RE constructs are added last separately to MEF cells already stably transduced with the other three required components, generating 3 independent cell lines.
(§1) Mouse constructs were produced as depicted in the panels of FIG. 1. Human sequence constructs were produced as in the panels of FIG. 9, where mouse cDNA constructs were replaced by human cDNA constructed. In the mouse ADIR system exogenous IL-17RC was not provided because the cell line (mouse embryonic fibroblasts) have endogenous IL-17RC expression. In the hADIR system, human components used for the hADIR system (hRA, hRC, hRB, hAct1) were expressed from added polynucleotides.
The data reflected in the Figures utilized a reporter system specifically designed for Act1-dependent IL-17 signaling pathways. The reporter system is based at least in part on the principle that the engagement of active cognate ligands, and the interaction between Act1 and IL-17 receptors is required for active signaling of IL-17A/F, IL-17E, and IL-17C. The protein-protein-interaction (PPI) based reporter system is highly specific and easily scalable. The disclosure is illustrated using mouse and human systems. For the data presented in the Figures, the system comprised a three-part reporter system specifically designed for detecting IL-17A/F, IL-17E, and IL-17C signaling. The PPI-based reporter system provides for detecting active signaling, and is specific for each of the IL-17 family cytokines. […] Each of the retroviral vectors can contain a unique selection or fluorescent marker to enable efficient generation and maintenance of stable cell lines (for example, Puromycin resistance for m/hIL-17RC(RB, RE)-TSC-tTA; EBFP for m/hAct1-TEV; Neomycin resistance and mVenus fluorescence for TRE-dmCherry-PEST, and Thy1.1 for m/hRA).

IL-17RA/RC = molecular target: T2, IL-17RA/RC (Mus musculus, UniProt Q60943+Q8K4C2); experiment: mADIR-17 dmCherry reporter assay in MEF cells (flow cytometry); type: cell-based; settings: for dmCherry signal produced: after 24 hrs (FIG. 7)
T2 construct: Full length IL-17RC in the purified ADIR system; expressed in transfected cells; host or cells: mouse embryonic fibroblasts (MEF), retrovirally transduced
T2 sequence (Q60943 32-864): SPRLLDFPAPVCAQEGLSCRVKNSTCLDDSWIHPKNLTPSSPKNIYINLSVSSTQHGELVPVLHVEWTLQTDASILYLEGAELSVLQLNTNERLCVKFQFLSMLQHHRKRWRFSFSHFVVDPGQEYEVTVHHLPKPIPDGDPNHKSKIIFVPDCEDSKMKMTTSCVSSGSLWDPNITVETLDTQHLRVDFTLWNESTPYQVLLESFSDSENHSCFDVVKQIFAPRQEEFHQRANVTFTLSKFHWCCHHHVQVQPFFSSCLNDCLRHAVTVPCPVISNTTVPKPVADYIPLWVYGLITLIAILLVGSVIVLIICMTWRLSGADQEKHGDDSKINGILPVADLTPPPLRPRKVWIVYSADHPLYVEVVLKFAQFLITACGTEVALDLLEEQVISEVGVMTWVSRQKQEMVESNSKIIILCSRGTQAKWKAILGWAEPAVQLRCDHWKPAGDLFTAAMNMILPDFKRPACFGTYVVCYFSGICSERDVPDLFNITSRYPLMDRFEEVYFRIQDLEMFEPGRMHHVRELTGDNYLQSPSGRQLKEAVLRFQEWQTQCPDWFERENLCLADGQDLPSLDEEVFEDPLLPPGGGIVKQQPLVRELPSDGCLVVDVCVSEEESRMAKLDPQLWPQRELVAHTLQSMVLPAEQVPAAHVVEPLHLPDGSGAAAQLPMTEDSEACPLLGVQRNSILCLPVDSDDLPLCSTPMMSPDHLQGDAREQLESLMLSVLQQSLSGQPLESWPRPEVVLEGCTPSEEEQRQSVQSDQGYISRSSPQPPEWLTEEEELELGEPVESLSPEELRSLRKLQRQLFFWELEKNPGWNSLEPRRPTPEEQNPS
T2 sequence (Q8K4C2 22-698): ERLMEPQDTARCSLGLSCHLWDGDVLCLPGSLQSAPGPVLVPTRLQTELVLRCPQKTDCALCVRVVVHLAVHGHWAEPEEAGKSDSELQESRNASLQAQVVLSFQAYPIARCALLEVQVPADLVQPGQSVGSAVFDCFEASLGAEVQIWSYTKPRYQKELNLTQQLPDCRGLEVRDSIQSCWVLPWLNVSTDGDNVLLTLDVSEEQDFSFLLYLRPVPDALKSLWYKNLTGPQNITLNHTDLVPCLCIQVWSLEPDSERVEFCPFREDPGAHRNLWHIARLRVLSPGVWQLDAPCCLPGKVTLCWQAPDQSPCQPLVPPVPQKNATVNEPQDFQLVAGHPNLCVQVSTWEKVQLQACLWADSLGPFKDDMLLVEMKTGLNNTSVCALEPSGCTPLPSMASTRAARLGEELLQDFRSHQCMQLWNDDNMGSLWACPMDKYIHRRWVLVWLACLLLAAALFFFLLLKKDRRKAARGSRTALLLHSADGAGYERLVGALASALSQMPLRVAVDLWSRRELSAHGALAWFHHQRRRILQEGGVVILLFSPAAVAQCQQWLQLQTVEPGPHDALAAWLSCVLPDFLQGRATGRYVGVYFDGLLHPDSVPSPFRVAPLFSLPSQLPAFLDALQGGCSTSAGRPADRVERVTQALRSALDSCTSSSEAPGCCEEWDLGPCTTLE
From the text: Unless defined otherwise herein, all technical and scientific terms used in this disclosure have the same meaning as commonly understood by one of ordinary skill in the art to which this disclosure pertains. Where the term “ADIR” is used herein it means ACT1-Dependent IL-17 Receptor Modulator Screening System. The preface “m” means mouse and the prefix “h” means human.
as §1
The data reflected in the Figures utilized a reporter system specifically designed for Act1-dependent IL-17 signaling pathways. The reporter system is based at least in part on the principle that the engagement of active cognate ligands, and the interaction between Act1 and IL-17 receptors is required for active signaling of IL-17A/F, IL-17E, and IL-17C. The protein-protein-interaction (PPI) based reporter system is highly specific and easily scalable. The disclosure is illustrated using mouse and human systems. For the data presented in the Figures, the system comprised a three-part reporter system specifically designed for detecting IL-17A/F, IL-17E, and IL-17C signaling. The PPI-based reporter system provides for detecting active signaling, and is specific for each of the IL-17 family cytokines. The system that is responsive to binding of IL-17A and IL-17F comprises (1) an Act1-tobacco etch virus (TEV) protease fusion protein, which upon active IL-17A/F binding to the IL-17RA/RC receptor heterodimer on a target cell, will be recruited to (2) IL-17RC fused with a TEV cleavage site(TSC)-tTA (a transcriptional transactivator that binds to tetracycline responsive element, or TRE), releasing tTA, which will subsequently translocate into the nucleus where a (3) TRE-dmCherry-PEST (destabilized mCherry) element is integrated into the genome. tTA binds to the TRE to drive dmCherry expression in the target modified cell. The three described components, Act1-TEV, IL-17RC-TSC-tTA, and TRE-dmCherry-PEST, along with IL-17RA, can be delivered by retro or lenti-viral vectors or guide-RNA directed nucleases, or recombinase systems, or by homologous recombination, into mouse embryonic fibroblasts (MEF) or other mammalian cell lines, establishing stable reporter cell lines. Using the same principle, IL-17RC-TSC-tTA can be replaced with IL-17RB-TSC-tTA in the described system to provide for IL-17E (IL-25) binding, and with IL-17RE-TSC-tTA for detecting IL-17C binding. A parallel approach involves attaching the fusion protein of —TSC-tTA to the RA component and three independent system cell lines generated by supplementing RC/RB/RE, Act1-TEV, and TRE-dmCherry reporter components. Each of the retroviral vectors can contain a unique selection or fluorescent marker to enable efficient generation and maintenance of stable cell lines (for example, Puromycin resistance for m/hIL-17RC(RB, RE)-TSC-tTA; EBFP for m/hAct1-TEV; Neomycin resistance and mVenus fluorescence for TRE-dmCherry-PEST, and Thy1.1 for m/hRA).

B1: IL-17F: mouse IL-17 family cytokine, cognate ligand of IL-17RA/RC (protein, UniProt Q7TNI7 29-161, looked up)
Interleukin-17F: RKNPKAGVPALQKAGNCPPLEDNTVRVDIRIFNQNQGISVPREFQNRSSSPWDYNITRDPHRFPSEIAEAQCRHSGCINAQGQEDSTMNSVAIQQEILVLRREPQGCSNSFRLEKMLLKVGCTCVKPIVHQAA
dmCherry signal produced (IL-17RA/RC; 0.4 ng/ml): 0.48%
dmCherry signal produced (IL-17RA/RC; 2 ng/ml): 0.81%
dmCherry signal produced (IL-17RA/RC; 10 ng/ml): 3.32%
dmCherry signal produced (IL-17RA/RC; 50 ng/ml): 13.8%

B3: IL-25: IL-25 (IL17E), noncognate ligand for the mADIR-17 system; binds IL-17RA/RB (protein, UniProt Q8VHH8 17-169, looked up)
Interleukin-25: VSLRIQEGCSHLPSCCPSKEQEPPEEWLKWSSASVSPPEPLSHTHHAESCRASKDGPLNSRAISPWSYELDRDLNRVPQDLYHARCLCPHCVSLQTGSHMDPLGNSVPLYHNQTVFYRRPCHGEEGTHRRYCLERRLYRVSLACVCVRPRVMA
responsiveness of mADIR-17 cells (dmCherry signal) to ligand (IL-17RA/RC; noncognate ligand, any doses, after 24 hrs, listed as mIL-17E): not responsive

More lines, now with the values ahead:

dmCherry signal response of hADIR-17 clone to ligand (hIL-17RA/RC): dose-dependent response
Molecule: hIL-17F: human IL-17F cytokine, cognate ligand in the hADIR-17 system

dmCherry signal response of hADIR-17 clone to ligand (hIL-17RA/RC): dose-dependent response
Molecule: hIL-17A: human IL-17A cytokine, cognate ligand in the hADIR-17 system

dmCherry signal response of hADIR-17 clone to ligand (hIL-17RA/RC): does not respond
B2: hIL-25: human IL-25, non-cognate ligand for hADIR-17; cognate ligand of the hADIR-25 system (protein, UniProt Q9H293 33-177, looked up)
Interleukin-25: YSHWPSCCPSKGQDTSEELLRWSTVPVPPLEPARPNRHPESCRASEDGPLNSRAISPWRYELDRDLNRLPQDLYHARCLCPHCVSLQTGSHMDPRGNSELLYHNQTVFYRRPCHGEKGTHKGYCLERRLYRVSLACVCVRPRVMG
